In paper PMC3985620, “Stepwise assembly of multiple Lin28 proteins on the terminal loop of let-7 miRNA precursors”:

Key:
Lin28 (Lin28A) [1] = target: T1, Lin28 (Lin28A) (Mus musculus (murine), UniProt Q8K3Y3 1-209); test: 2-AP fluorescence; 500 nM RNA (stoichiometric); EMSA: 50 mM Tris pH 7.6, 50 mM NaCl, 10% glycerol, 0.05% NP-40 alternative, 2 mM DTT, 4°C; 2-AP: 50 mM Tris pH 7.6, 50 mM NaCl, 10% glycerol, 4°C; FRET: EMSA buffer, 30°C; conditions: protein: recombinant; label: 2-AP; hairpin
T1 sequence: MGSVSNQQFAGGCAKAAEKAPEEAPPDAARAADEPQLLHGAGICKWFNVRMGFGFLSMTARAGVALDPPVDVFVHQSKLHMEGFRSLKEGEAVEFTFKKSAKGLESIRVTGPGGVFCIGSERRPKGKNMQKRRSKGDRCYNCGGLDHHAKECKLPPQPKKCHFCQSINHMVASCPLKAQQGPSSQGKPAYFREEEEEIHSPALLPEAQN

Lin28 (Lin28A) [2] = target: T1, Lin28 (Lin28A); test: EMSA; Hill n = 1.46 ± 0.01; EMSA: 50 mM Tris pH 7.6, 50 mM NaCl, 10% glycerol, 0.05% NP-40 alternative, 2 mM DTT, 4°C; 2-AP: 50 mM Tris pH 7.6, 50 mM NaCl, 10% glycerol, 4°C; FRET: EMSA buffer, 30°C; conditions: protein: recombinant; label: 5'-32P; hairpin
[3] = target: T2, Lin28 C139A/C161A;Lin28 119-180 (Mus musculus (murine);Mus musculus …, UniProt Q8K3Y3;Q8K3Y3 1-209;119-180, C139A;C161A|); test: EMSA (stoichiometric); 1:1:1 and 1:1:2 RNA:P3:P2 complexes; EMSA: 50 mM Tris pH 7.6, 50 mM NaCl, 10% glycerol, 0.05% NP-40 alternative, 2 mM DTT, 4°C; 2-AP: 50 mM Tris pH 7.6, 50 mM NaCl, 10% glycerol, 4°C; FRET: EMSA buffer, 30°C; conditions: protein: recombinant;recombinant; tags: ;; label: 5'-32P; hairpin with 5' G-rich bulge and internal loop
T2 sequence 1: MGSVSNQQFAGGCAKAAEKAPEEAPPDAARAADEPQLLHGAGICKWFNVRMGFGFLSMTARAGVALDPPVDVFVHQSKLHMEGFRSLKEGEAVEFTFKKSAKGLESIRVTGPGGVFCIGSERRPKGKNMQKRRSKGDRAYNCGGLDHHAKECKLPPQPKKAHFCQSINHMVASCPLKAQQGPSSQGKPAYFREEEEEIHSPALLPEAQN
T2 sequence 2: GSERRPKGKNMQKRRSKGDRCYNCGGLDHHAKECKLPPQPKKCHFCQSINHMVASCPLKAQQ

Lin28 119-180 [4] = target: T3, Lin28 119-180 (Mus musculus (murine), UniProt Q8K3Y3 119-180); test: EMSA (stoichiometric); 0.5 µM RNA; EMSA: 50 mM Tris pH 7.6, 50 mM NaCl, 10% glycerol, 0.05% NP-40 alternative, 2 mM DTT, 4°C; 2-AP: 50 mM Tris pH 7.6, 50 mM NaCl, 10% glycerol, 4°C; FRET: EMSA buffer, 30°C; conditions: protein: recombinant, label: 5'-32P
T3 sequence: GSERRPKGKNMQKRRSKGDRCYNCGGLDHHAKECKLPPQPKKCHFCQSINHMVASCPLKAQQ

Lin28 (Lin28A) [5] = target: T1, Lin28 (Lin28A); test: as above; conditions: protein: recombinant, label: 5'-32P
Lin28 (Lin28A) [6] = target: T1, Lin28 (Lin28A); test: 2-AP fluorescence; 500 nM RNA; second Lin28; EMSA: 50 mM Tris pH 7.6, 50 mM NaCl, 10% glycerol, 0.05% NP-40 alternative, 2 mM DTT, 4°C; 2-AP: 50 mM Tris pH 7.6, 50 mM NaCl, 10% glycerol, 4°C; FRET: EMSA buffer, 30°C; conditions: protein: recombinant; label: 2-AP; hairpin
Lin28 119-180 [7] = target: T3, Lin28 119-180; test: EMSA; EMSA: 50 mM Tris pH 7.6, 50 mM NaCl, 10% glycerol, 0.05% NP-40 alternative, 2 mM DTT, 4°C; 2-AP: 50 mM Tris pH 7.6, 50 mM NaCl, 10% glycerol, 4°C; FRET: EMSA buffer, 30°C; conditions: protein: recombinant; label: 5'-32P
Lin28 (Lin28A) [8] = target: T1, Lin28 (Lin28A); test: as above; conditions: protein: recombinant; label: 5'-32P
Lin28 (Lin28A) [9] = target: T1, Lin28 (Lin28A); test: EMSA; 1:1 complex; EMSA: 50 mM Tris pH 7.6, 50 mM NaCl, 10% glycerol, 0.05% NP-40 alternative, 2 mM DTT, 4°C; 2-AP: 50 mM Tris pH 7.6, 50 mM NaCl, 10% glycerol, 4°C; FRET: EMSA buffer, 30°C; conditions: protein: recombinant; label: 5'-32P; hairpin
Lin28 C139A/C161A [10] = target: T4, Lin28 C139A/C161A (Mus musculus (murine), UniProt Q8K3Y3 1-209, C139A;C161A); test: FRET strand displacement; 25 nM RNA, 30°C; ΔFRETmax 0.77; EMSA: 50 mM Tris pH 7.6, 50 mM NaCl, 10% glycerol, 0.05% NP-40 alternative, 2 mM DTT, 4°C; 2-AP: 50 mM Tris pH 7.6, 50 mM NaCl, 10% glycerol, 4°C; FRET: EMSA buffer, 30°C; conditions: protein: recombinant; label: 5'-Cy5 (S1); 5'-Cy3 (S3); blunt, 5-nt G-rich bulge in strand 1
T4 sequence: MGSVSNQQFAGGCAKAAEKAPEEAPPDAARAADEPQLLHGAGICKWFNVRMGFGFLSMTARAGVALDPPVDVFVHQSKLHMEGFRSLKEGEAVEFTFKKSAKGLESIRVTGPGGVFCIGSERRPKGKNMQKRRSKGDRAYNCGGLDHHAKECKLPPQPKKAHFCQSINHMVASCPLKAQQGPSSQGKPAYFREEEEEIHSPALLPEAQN

Lin28 119-180 [11] = target: T3, Lin28 119-180; test: FRET strand displacement; 25 nM RNA, 30°C; ΔFRETmax 0.24, binding without displacement; EMSA: 50 mM Tris pH 7.6, 50 mM NaCl, 10% glycerol, 0.05% NP-40 alternative, 2 mM DTT, 4°C; 2-AP: 50 mM Tris pH 7.6, 50 mM NaCl, 10% glycerol, 4°C; FRET: EMSA buffer, 30°C; conditions: protein: recombinant; label: 5'-Cy5 (S1); 5'-Cy3 (S3); blunt, 5-nt G-rich bulge in strand 1
Lin28 (Lin28A) [12] = target: T1, Lin28 (Lin28A); test: FRET strand displacement; 25 nM RNA, 30°C; ΔFRETmax 0.84; EMSA: 50 mM Tris pH 7.6, 50 mM NaCl, 10% glycerol, 0.05% NP-40 alternative, 2 mM DTT, 4°C; 2-AP: 50 mM Tris pH 7.6, 50 mM NaCl, 10% glycerol, 4°C; FRET: EMSA buffer, 30°C; conditions: protein: recombinant; label: 5'-Cy5 (S1); 5'-Cy3 (S3); blunt, 5-nt G-rich bulge in strand 1
Lin28 C139A/C161A [13] = target: T4, Lin28 C139A/C161A; test: EMSA (stoichiometric); 0.5 µM RNA; EMSA: 50 mM Tris pH 7.6, 50 mM NaCl, 10% glycerol, 0.05% NP-40 alternative, 2 mM DTT, 4°C; 2-AP: 50 mM Tris pH 7.6, 50 mM NaCl, 10% glycerol, 4°C; FRET: EMSA buffer, 30°C; conditions: protein: recombinant; label: 5'-32P; hairpin
Lin28 (Lin28A) [14] = target: T1, Lin28 (Lin28A); test: EMSA; Hill n = 1.3 ± 0.1; EMSA: 50 mM Tris pH 7.6, 50 mM NaCl, 10% glycerol, 0.05% NP-40 alternative, 2 mM DTT, 4°C; 2-AP: 50 mM Tris pH 7.6, 50 mM NaCl, 10% glycerol, 4°C; FRET: EMSA buffer, 30°C; conditions: protein: recombinant; label: 5'-32P; hairpin
Lin28 (Lin28A) [15] = target: T1, Lin28 (Lin28A); test: EMSA; Hill n = 2 ± 1; EMSA: 50 mM Tris pH 7.6, 50 mM NaCl, 10% glycerol, 0.05% NP-40 alternative, 2 mM DTT, 4°C; 2-AP: 50 mM Tris pH 7.6, 50 mM NaCl, 10% glycerol, 4°C; FRET: EMSA buffer, 30°C; conditions: protein: recombinant; label: 5'-32P; hairpin
[16] = hairpin with 5' G-rich bulge and internal loop

GCAGAUUGAGGGUCUAUGAUACCACCCGGUACAGGAGAUAUCUGCA (structured_RNA, 2-aminopurine at A9) [TL-let-7g 2-AP9]
apparent K (half saturation) (Lin28 (Lin28A) [1]): ~548 nM

GCAGAUUGAGGGUCUAUGAUACCGCAAGGUACAGGAGAUAUCUGCA (structured_RNA) [TL-let-7g GNRA loop]
Kd (Lin28 (Lin28A) [2]): 0.4 ± 0.2 nM

GCAGAUUGAGGGUCUAUGAUACCACCCGGUACAGGAGAUAUCUGCA (structured_RNA) [TL-let-7g]
binding result [3]: binds
binding result (Lin28 119-180 [4]; [16]): binds
binding result (Lin28 (Lin28A) [5]; [16]): binds

GCAGAUUGAGGGUCUAUGAUACCACCCGGUACAGGAGAUAUCUGCA (structured_RNA, 2-aminopurine at A36) [TL-let-7g 2-AP36]
apparent K (half saturation) (Lin28 (Lin28A) [1]): ~548 nM

GCAGAUUGAGGGUCUAUGAUACCACCCGGUACAGGAGAUAUCUGCA (structured_RNA, 2-aminopurine at A21) [TL-let-7g 2-AP21]
apparent K (half saturation) (Lin28 (Lin28A) [1]): 500 nM

GCAGAUUGAGGGUCUAUGAUACCACCCGGUACAGGAGAUAUCUGCA (structured_RNA, 2-aminopurine at A31) [TL-let-7g 2-AP31]
apparent K (half saturation) (Lin28 (Lin28A) [6]): 1300 nM

AGGAGAUAUCUGCA (ssRNA) [TL33-46]
binding result (Lin28 119-180 [7]): no binding
Kd (Lin28 (Lin28A) [8]): 0.5 ± 0.1 nM

GGUACAGGAGAUAU (ssRNA) [TL28-41]
binding result (Lin28 119-180 [7]): no binding
Kd (Lin28 (Lin28A) [8]): 0.29 ± 0.08 nM

GCAGAUUUAGGGUCACACCCACCACUGGGAGAUAUCUGCA (structured_RNA) [TL-let-7a-1]
binding result (Lin28 119-180 [4]; hairpin): binds
binding result (Lin28 (Lin28A) [5]; hairpin): binds

GCGACUGUUGAAUCUCAUGGCGCA (structured_RNA) [TL-miR-21a]
Kd (Lin28 (Lin28A) [9]): 13 nM

UCUAUGAUACCACC (ssRNA) [TL13-26]
Kd (Lin28 (Lin28A) [8]): ~43.3 nM

AUUGAGGGUCUAUA (ssRNA) [TL5-18]
binding result (Lin28 119-180 [7]): no binding
Kd (Lin28 (Lin28A) [8]): 1.7 ± 0.4 nM

B1: duplexbulge (dsRNA)
RNA 1: CGUACAGAUUGAGGGUGACAUCG
RNA 2: CGAUGUCAUAUCUGUACG
apparent K (half saturation) (Lin28 C139A/C161A [10]): 354 nM
apparent K (half saturation) (Lin28 119-180 [11]): 99 nM
apparent K (half saturation) (Lin28 (Lin28A) [12]): 58 nM

GCAGAUUUAGGGCAGAGAUUUUGCCCACAAGGAGUUAUCUGCA (structured_RNA) [TL-let-7d]
binding result (Lin28 119-180 [4]; hairpin): binds
binding result (Lin28 C139A/C161A [13]): binds
binding result (Lin28 (Lin28A) [5]; hairpin): binds

GCAGAUUGAGGGUCUUGUACCACCCGGUACAAGAUAUCUGCA (structured_RNA) [TL-let-7g Δiloop]
Kd (Lin28 (Lin28A) [14]): 0.52 ± 0.09 nM

GGUACACCACAUAU (ssRNA) [TL28-41V]
Kd (Lin28 (Lin28A) [8]): ~43.3 nM

AUACCACCCGGUAC (ssRNA) [TL19-32]
binding result (Lin28 (Lin28A) [8]): no binding

UCUAUCAAACCACC (ssRNA) [TL13-26V]
binding result (Lin28 (Lin28A) [8]): no binding

GCCGCGGGGCCUUCGCCGCACACGGCA (structured_RNA) [TL-miR-99b]
Kd (Lin28 (Lin28A) [9]): 15 nM

GCAGAUGUCUAUGAUACCACCCGGUACAGGAGAUAUCUGCA (structured_RNA) [TL-let-7g Δbulge]
Kd (Lin28 (Lin28A) [15]): 0.9 ± 0.2 nM
